Patent publication US20200230057A1, “Pharmaceutical Compositions, Methods for Preparation using Lipid Vesicle Particles of Defined Size, and Uses Thereof” (IMMUNOVACCINE TECHNOLOGIES INC., priority 2017, published 2020)

Assay: HPLC peptide recovery before and after freeze-drying
Conditions: set specification 0.40-0.60 mg/mL for neoantigens, 0.2-0.3 mg/mL for A16L
Procedure: The composition prepared as described in Example 4, containing 14 neoantigens and the A16L T-helper peptide, was subjected to HPLC analysis to evaluate the peptide stability before and after freeze-drying.
Experimental Conditions: • IPQC Solutions: Dilute the IPQC solutions with Methanol and then with Mobile Phase A, e.g. as follows: • 100 mg In-Process Testing Solution • +450 μL Methanol, mix • +450 μL Mobile Phase A, mix • Mix by vortexing. Samples containing lipids will be slightly hazy. Dilution factor=10×. • Lyophilisates (for Release and Stability Testing): Solubilize the lyophilisate with Ultrapure lab water. Add 3-4 glass beads and vortex vigorously for 1 minute to assure complete homogenization. Dilute the solution with Methanol and subsequently with Mobile Phase A, e.g. as follows: • 100 mg In-Process Testing Solution • +450 μL Methanol, mix • +450 μL Mobile Phase A, mix • Mix by vortexing. The sample preparations will be slightly hazy. Dilution factor=20×.
The dried preparations were solubilized in water for HPLC analysis. T=0 is the day in which the samples were removed from the freeze-dryer. T=1M and T=3M are 1 month and 3 months after T=0, respectively, with the dried preparation having been stored at −20° C.

Sequence	Peptide concentration relative to set specification
CGTAFFINFIAIYHHASRAIPFGTMVA (Mut36) [Mut 36]	consistently outside the set specification
IPSGTTILNCFHDVLSGKLSGGSPGVP (Mut29A) [Mut 29a]	outside the set specification
VVDRNPQFLDPVLAYLMKGLCEKPLAS (Mut17) [Mut 17]	outside the set specification
